According to publication PMC9468336, “The choanoflagellate pore-forming lectin SaroL-1 punches holes in cancer cells by targeting the tumor-related glycosphingolipid Gb3” (Communications Biology, 2022):

Tests used:
[1] = Confocal imaging of SaroL-1 binding to FSL-A GUVs; conditions: 200 nM SaroL-1, FSL-A GUVs
Source text: (§1) GUVs were composed of 1,2-dioleoyl-sn-glycero-3-phosphocholine (DOPC), cholesterol (both AvantiPolar Lipids, United States), Atto 647 N 1,2-dioleoyl-sn-glycero-3-phosphoethanolamine (DOPE; Sigma-Aldrich), and one of the following glycolipids at a molar ratio of 64.7:30:0.3:5. The glycolipids are globotriaosylceramide (Gb3, Matreya), FSL-Gb3 (Function-Spacer-Lipid with globotriaosyl saccharide), and corresponding FSL-isoGb3 (Function-Spacer-Lipid with iso-globotriaosyl saccharide) synthetized as previously described[84],[85], FSL-A(tri) (Function-Spacer-Lipid with blood group A trisaccharide; Sigma-Aldrich), FSL-B(tri) (Function-Spacer-Lipid with blood group B trisaccharide; Sigma-Aldrich) or lactosylceramide (LC, Sigma-Aldrich).
(§2) GUVs were prepared by the electroformation method as earlier described. Briefly, lipids dissolved in chloroform of a total concentration of 0.5 mg/mL were spread on indium tin oxid-covered (ITO) glass slides and dried in a vacuum for at least 1 h or overnight. […]
(§3) Samples of GUVs and SaroL-1 were imaged using a confocal fluorescence microscope (Nikon Eclipse Ti-E inverted microscope equipped with Nikon A1R confocal laser scanning system, 60x oil immersion objective, NA = 1.49 and four laser lines: 405 nm, 488 nm, 561 nm, and 640 nm). […]

[2] = Confocal imaging of SaroL-1 binding to DOPC GUVs without glycolipids; conditions: 200 nM SaroL-1, DOPC GUVs without glycolipids (negative control)
Source text: as §1, §2, §3

H1299 cells = experiment: Cell detachment assay; format: cell-based, human
Experimental: The human lung epithelial cell line H1299 (American Type Culture Collection, CRL-5803) was cultured in a complete medium, consisting of Roswell Park Memorial Institute (RPMI) medium supplemented with 10% fetal calf serum (FCS) and 2 mM L-glutamine at 37 °C and 5% CO2. Cells were stimulated with different concentrations of SaroL-1 in a complete medium for indicated time points.
To determine the role of SaroL-1 in cell detachment, 3 × 10^5 cells per well were counted and allowed to adhere overnight in a 6-well plate. The next day, cells were incubated for 2, 4, or 8 h with two different concentrations of SaroL-1 (270 nM and 1.36 µM) diluted in a complete medium compared to a negative control. As a positive control, cells were incubated with trypsin-EDTA for 10 min at 37 °C, to induce 100% cell detachment. The number of cells in suspension at the indicated time points was quantified by analyzing the supernatant with the CytoSmart Corning cell counter. Cells were resuspended with Trypan Blue solution (Sigma-Aldrich) in a ratio 1:1 for the quantification of cellular death upon detachment.

B1: SaroL-1: Recombinant pore-forming lectin of Salpingoeca rosetta (UniProt F2UID9, 329 amino acids) with β-trefoil and aerolysin-like domains (protein)
chain: MSSTFEPATDSPLPVPGVQYFLQHVQSGKYVHPHGGSDMPGNDTALVLHHGFDEKRDALRWVFVNDAENKHQLKHYSSGKFVHPKGGKVGKEATLVVHSSPGRPETMIEMVQEDGRTYLRHTDSDYYVHPHGGSPNPGDNTRLVYYSGYRPSLAFLAIPAETLFVDRIEIHQAQALESINTITSLSDEHRNDTDQPVQTSISVALEESLQDSAQLSFERCFGLKVGSEFEVGLPLVGKTKVSVQFSGSWKSSTIKGEVRTSAVKVQINEHVTIPPGKCVQIRIDTRRCTKTAPATMYLRTASGIEVQRETTVTSTYHYDQEVHVVPVTN
modifications: left off: His6, N-terminal, state not stated
notes: Recombinant pore-forming lectin of Salpingoeca rosetta (UniProt F2UID9, 329 amino acids) with β-trefoil and aerolysin-like domains
What does the source list for B1?
binding to GUVs [1]: No binding; binding to GUVs [2]: No binding; time point at which cell detachment is promoted (H1299 cells; 271 nM SaroL-1): 8 h; cell rounding and detachment (in words) (H1299 cells; compared to PBS-treated cells): dose-dependent rounding and detachment of cells; time point at which detachment of cells is visible (H1299 cells; highest concentration, 1.36 µM SaroL-1): 2 h
